This passage reports stoichiometry N results from publication doi:10.1101/2023.01.23.525191.

“And” between values parts separate entries of the source, which are not always exact repeats. Equal entries are not always repeated.

As usually defined, the stoichiometry N is a count of units in the complex or per binding partner.

Experiment [1] addresses recombinant untagged rat RBPMS-A ΔC20 (rat). The experiment in a line: SEC.
Experiment [2] has the same target. Briefly: cross-linking.
Experiment [3] has the same target. The experiment in a line: AUC.
The target is the same in experiment [4]. Briefly: AUC. The source holds these as a separate data set.

For the substance “recombinant untagged rat RBPMS-A ΔC20 (domain or fragment)”, the stoichiometry N was 2 in experiment [1]; 3 and 4 in experiment [2]; 2 in experiment [3]; 2 and 3 in experiment [4].
